{"source": "patent US20030235860A1", "about": "“Interactions between AR, ER, TR2, and TR4” (priority 1999, published 2003)", "molecules": {"B1": {"name": "TR4 LBD (row label of Table 4) (receptor)", "chain": "AASTEKIYIRKDLRSPLIATPTFVADKDGARQTGLLDPGMLVNIQQPLIREDGTVLLATDSKAETSQGALGTLANVVTSLANLSESLNNGDTSEIQPEDQSASEITRAFDTLAKALNTTDSSSSPSLADGIDTSGGGSIHVISRDQSTPIIEVEGPLLSDTHVTFKLTMPSPMPEYLNVHYICESASRLLFLSMHRARSIPAFQGLGQDCNTSLVRACWNELFTLGLAQCAQVMSLSTILAAIVNHLQNSIQEDKLSGDRIKQVMEHIWKLQEFCNSMANWDIDGYEYAYLKAIVLFSPDHPGLTSTSQIEKFQEKAQMELQDYVQKTYSEDTYRLARILVRLPALRLMSSNITEELFFTGLIGNVSIDSIIPYILKMETAEYNGQITGVSL", "notes": "not shown: Fusion partner: GST in the pull-down with ER, GAL4-DBD in the hybrid assays with AR"}, "B2": {"name": "TR2 DBD (row label of Table 4) (receptor)", "chain": "DLSAQHLQLLTDNSPDQGPNKVFDLCVVCGDKASGRHYGAVTCEGCKGFFKRSIRKNLVYSCRGSKDCIINKHHRNRCQYCRLQRCIAFGMKQDSVQCERKPIEVSREK", "notes": "not shown: GST fusion partner of pGEX-KG (GST-TR2-#2)"}, "B3": {"name": "TR2 N-T (row label of Table 4) (receptor)", "chain": "MATIEEIAHQIIEQQMGEIVTEQQTGQKIQIVTALDHNTQGKQFILTNHDGSTPSKVILARQDSTPGKVFLTTPDAAGVNQLFFTTPDLSAQHLQLLTDNSPDQGPNKVFDL", "notes": "also called TR2 N-terminal domain; not shown: GST fusion partner of pGEX-KG (GST-TR2-#1)"}, "B4": {"name": "GST-ER-N: GST fusion of aa 1-165 of ER (protein)", "chain": "MTMTLHTKASGMALLHQIQGNELEPLNRPQLKIPLERPLGEVYLDSSKPAVYNYPEGAAYEFNAAAAANAQVYGQTGLPYGPGSEAAAFGSNGLGGFPPLNSVSPSPLMLLHPPPQLSPFLQPHGQQVPYYLENEPSGYTVREAGPPAFYRPNSDNRRQGGRERL", "modifications": "left off: a dimerising Fc or GST; small tags and cut ends", "notes": "GST fusion of aa 1-165 of ER"}, "B5": {"name": "GST-ER-DBD: GST fusion of aa 123-340 of ER (protein)", "chain": "PHGQQVPYYLENEPSGYTVREAGPPAFYRPNSDNRRQGGRERLASTNDKGSMAMESAKETRYCAVCNDYASGYHYGVWSCEGCKAFFKRSIQGHNDYMCPATNQCTIDKNRRKSCQACRLRKCYEVGMMKGGIRKDRRGGRMLKHKRQRDDGEGRGEVGSAGDMRAANLWPSPLMIKRSKKNSLALSLTADQMVSALLDAEPPILYSEYDPTRPFSEA", "modifications": "left off: a dimerising Fc or GST; small tags and cut ends", "notes": "GST fusion of aa 123-340 of ER"}, "B6": {"name": "GST-ER-#2: GST fusion of ER aa 123-340 (protein)", "chain": "B5 chain", "modifications": "left off: a dimerising Fc or GST; small tags and cut ends"}, "B7": {"name": "GST-ER-#I: GST fusion of ER aa 1-165 (protein)", "chain": "B4 chain", "modifications": "left off: a dimerising Fc or GST; small tags and cut ends"}}, "key": {"PSA": {"test_system": "PSA", "experiment": "Northern blot of endogenous PSA in LNCaP cells", "format": "cell-based, human", "conditions": "LNCaP cells", "description": "Total RNA from the DHT-treated transfected LNCaP cells was prepared by the ultracentrifugation method as described. Lee, et al., J: Biol. Chem. 273, 13437-13443 (1998). The probe was obtained from exon 3 of PSA gene and labeled with a-32p dCTP.\nTo rule out the potential artificial effects linked to transfected reporter assays, the expression of endogenous prostate specific antigen (PSA, an androgen target that is widely used as a marker for prostate cancer progression) in LNCaP cells was measured by Northern blot analysis. Total RNA (25 μg) from LNCaP cells, which were transfected with either pCMX-TR4 or pCMX vector using SuperFect (Qiagen), was applied into a formamide RNA gel, then transferred onto a Nylon membrane, and then hybridized with a 32P-PSA gene fragment from the exon 3. P-actin was used as an internal control. […] The level of secreted PSA protein in the medium measured by ELISA, also confirmed this conclusion. This in vivo TR4-mediated suppressive effect strongly supports the above reporter assays.\nTotal RNA from transfected LNCaP cells was prepared using TRIZOL reagents (Life Technology) as instructed by manufacturer. The probe was obtained from the PSA gene by PCR and labeled with 32P dCTP. Northern hybridization was performed as described previously [Mu X. M. et al. (2002) J Biol Chem 275:23877-23883]."}, "MCF7-TR2 cells": {"test_system": "MCF7-TR2 cells", "experiment": "MTT growth assay, MCF7-TR2 cells", "format": "cell-based", "conditions": "MCF7-TR2 cells; 10 nM E2, and/or 2 mg/ml doxycycline (TR2 induction)", "description": "(A) Growth assays were performed by MTT method as instructed by manufacturer (Sigma). 5×10^3 MCF7-pBIG and MCF7-TR2 cells were seeded in 24-well plates and incubated in RPMI with 10% CD-FCS for 48 h. […] After 3- and 5-day treatment, cells were harvested for MTT assay. Data represents the relative folds of MTT O.D.570 values at day 5 divided by that at day 3. […] Cells were then trypsinized and fixed overnight in 70% Ethanol. After cells were incubated with 1 mg/ml RNase A (Sigma) and propidium iodide (Roche Molecular Biochemicals), the DNA contents of cells were measured by a flow cytometry. (C) Percentage of growth suppression by TR2. MCF7-TR2 cells were seeded at 5×10^3 cells per well in 24-well plates. […] The treatments were changed every two days. The indices of cell growth were determined by MTT assay. The MTT values from cells without doxycycline were set as 100% in each kind of treatment. Values are represented by the percentage of growth suppression from cells with doxycycline to that without doxycycline."}, "[1]": {"target": "T1, estrogen receptor (ER), full-length (human, UniProt P03372 1-595)", "T1 construct": "35S-labeled when in vitro translated for the pull-downs; endogenous in MCF7 cells for the co-immunoprecipitation; also called ERα; pSG5-ER", "T1 sequence": "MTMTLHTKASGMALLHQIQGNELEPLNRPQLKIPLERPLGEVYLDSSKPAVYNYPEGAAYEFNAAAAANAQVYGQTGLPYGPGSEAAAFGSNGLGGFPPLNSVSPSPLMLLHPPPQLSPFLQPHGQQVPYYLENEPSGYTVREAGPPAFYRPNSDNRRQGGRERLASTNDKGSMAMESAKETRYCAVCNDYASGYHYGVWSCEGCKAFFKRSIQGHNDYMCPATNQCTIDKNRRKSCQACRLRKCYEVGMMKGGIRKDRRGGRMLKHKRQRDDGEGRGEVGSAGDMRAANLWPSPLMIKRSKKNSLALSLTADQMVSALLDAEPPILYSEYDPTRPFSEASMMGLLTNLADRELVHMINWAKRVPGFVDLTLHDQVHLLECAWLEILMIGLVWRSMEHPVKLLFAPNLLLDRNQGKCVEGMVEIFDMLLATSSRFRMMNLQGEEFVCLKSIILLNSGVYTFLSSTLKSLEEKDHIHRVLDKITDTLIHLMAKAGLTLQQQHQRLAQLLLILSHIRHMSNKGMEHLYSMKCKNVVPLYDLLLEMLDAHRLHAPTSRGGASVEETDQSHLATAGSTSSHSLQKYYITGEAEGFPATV", "experiment": "Table 4, summary of interactions tested; assay not given"}, "TR2": {"target": "T2, TR2 (Homo sapiens, UniProt P13056)", "T2 sequence (P13056 1-603)": "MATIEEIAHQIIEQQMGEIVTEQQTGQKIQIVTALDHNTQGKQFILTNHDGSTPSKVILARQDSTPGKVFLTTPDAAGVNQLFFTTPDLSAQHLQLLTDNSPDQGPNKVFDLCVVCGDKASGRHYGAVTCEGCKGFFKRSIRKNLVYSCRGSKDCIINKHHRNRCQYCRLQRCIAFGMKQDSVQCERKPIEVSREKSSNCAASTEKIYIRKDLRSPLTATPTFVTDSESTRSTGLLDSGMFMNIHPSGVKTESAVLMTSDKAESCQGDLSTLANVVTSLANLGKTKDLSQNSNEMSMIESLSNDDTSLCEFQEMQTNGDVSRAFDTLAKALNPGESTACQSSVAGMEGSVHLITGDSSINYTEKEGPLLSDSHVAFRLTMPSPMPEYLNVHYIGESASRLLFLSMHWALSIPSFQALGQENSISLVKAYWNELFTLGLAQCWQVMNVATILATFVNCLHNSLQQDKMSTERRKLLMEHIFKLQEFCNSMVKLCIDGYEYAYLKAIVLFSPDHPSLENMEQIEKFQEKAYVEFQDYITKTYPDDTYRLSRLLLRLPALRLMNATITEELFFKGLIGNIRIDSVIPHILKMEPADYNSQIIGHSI", "experiment": "GST-ER fragment pull-down of [35S]-TR2", "format": "binding", "set-up": "host or cells: in vitro translation, TNT reticulocyte lysate", "conditions": "for Interaction with [35S]-TR2: GST-ER fragments, presence of 1 μM E2, Example 1; for Interaction with TR2: GST-fused ER peptides, presence or absence of E2, Example 2", "description": "Fusion proteins of GST-TR2, GST-ER segments and GST were obtained by transforming expressing plasmids into BL21(DE3) pLysS competent bacteria followed with 2-hour IPTG induction. GST-proteins were then purified by mixing Glutathione-Sepharose™ 4B (Pharmacia) into bacteria lysates on a rotating disk at 4° C. for 40 mm followed by washing with 1 mL NENT buffer (20 mM Tris-HCL (pH 8.0), 100 mM NaCl, 1 mM EDTA, 6 mM MgCl2, 1 mM Dithiothretiol, 8% Glycerol, 1 mM PMSF and 0.5% (v/v) NP-40). The ER, AR, RXRA., and TR2 proteins labeled with [35S] were generated in vitro by using the TNT reticulocyte lysate system (Promega). For the in vitro interaction, the glutathione-Sepharose bound GST-proteins were resuspended with 100 μl of interaction buffer (20 mM HEPES pH 7.9, 150 mM KCl, 5 mM MgCl2. 0.5 mM EDTA, 0.5 mM Dithiothretiol, 0.1% (v/v) NP-40, 0.1% (w/v) BSA and 1 mM PMSF) and mixed with 5 μl of […] at 4° C. for 3 h. After extensive washes with NENT buffer, the bound proteins were separated on an SDS/8% PAGE and visualized by using autoradiography.\nThe in vitro GST pull-down assay was applied to examine the interaction between the TR2 and ER. In vitro-translated, [35S]-labeled ER, AR, and RXRα proteins were incubated with GST or GST-TR2 bound on glutathione-Sepharose beads. After extensive washing, proteins were separated on an SDS/8% PAGE and visualized by using autoradiography.\nGST alone and GST fusion proteins were purified by Glutathione-Sepharose 4B beads as instructed by manufacturer (Amersham Pharmacia). The pull-down assay was performed with 5 μl of in vitro-translated [^35S]-labeled proteins as described previously (Yeh, S. et al. (2000) Proc. Natl. Acad. Sci. USA 97, 11256-61)."}}, "data": [{"molecule": "C[C@]12CCC(=O)C[C@@H]1CC[C@@H]1[C@@H]2CC[C@]2(C)[C@@H](O)CC[C@@H]12", "note": "[DHT, hihydroxytestosterone, reference compound]", "values": [{"measurement": "PSA mRNA expression", "setting": "PSA; 10 nM DHT, pCMV-TR2, Example 4", "result": "induces PSA mRNA expression"}, {"measurement": "Induction of PSA transcript", "setting": "PSA; 24 hours of DHT treatment", "result": "about 2.5 fold"}]}, {"molecule": "C[C@H]1c2cccc(O)c2C(=O)C2=C(O)[C@]3(O)C(=O)C(C(N)=O)=C(O)[C@@H](N(C)C)[C@@H]3[C@@H](O)[C@@H]21", "note": "[doxycycline, reference compound]", "values": [{"measurement": "Cell growth, relative folds of MTT O.D.570 at day 5 divided by day 3", "setting": "MCF7-TR2 cells", "result": 11.1, "unit": "fold"}]}, {"molecule": "B1", "values": [{"measurement": "binding result", "setting": "[1]", "result": "binds"}]}, {"molecule": "B2", "values": [{"measurement": "binding result", "setting": "[1]", "result": "binds"}]}, {"molecule": "B3", "values": [{"measurement": "binding result", "setting": "[1]", "result": "no binding"}]}, {"molecule": "B4", "values": [{"measurement": "Interaction with [35S]-TR2", "setting": "TR2", "result": "not"}]}, {"molecule": "B5", "values": [{"measurement": "Interaction with [35S]-TR2", "setting": "TR2", "result": "not"}]}, {"molecule": "B6", "values": [{"measurement": "Interaction with TR2", "setting": "TR2", "result": "can interact"}]}, {"molecule": "B7", "values": [{"measurement": "Interaction with TR2", "setting": "TR2", "result": "not"}]}]}
